B1: Azoarcus group I ribozyme (parent)
chain: GUGCCUUGCGCCGGGAAACCACGCAAGGGAUGGUGUCAAAUUCGGCGAAACCUAAGCGCCCGCCCGGGCGUAUGGCAACGCCGAGCCAAGCUUCGGCGCCUGCGCCGAUGAAGGUGUAGAGACUAGACGGCACCCACCUAAGGCAAACGCUAUGGUGAAGGCAUAGUCCAGGGAGUGGCGAAAGUCACACAAACCGG

This data set covers variants of B1. As to the kind of experiment: reverse-splicing fitness (ratio to wild type); higher = more active; in vitro selection; Mg2+ level not given. The method, boiled down: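 An in vitro group I ribozyme library with randomized positions was T7-transcribed and gel-purified. In triplicate, 10 pmol RNA in EPPS pH 7.5 was reacted with 50 pmoles of a 30-nt RNA substrate for 1 h at 37 °C across several added MgCl2 levels (1–48 mM), then stopped with EDTA. Products were reverse transcribed from a substrate-complementary primer, PCR-amplified and sequenced (HiSeq 4000). Fitness is a variant's read proportion after selection over that before, normalised to wild type.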
On to GUGCCUUGCGCCGGGAAACCACGCAAGGGAUGGUGUCAAAUUCGGCGAAACCUAAGCGCCCGCCCGGGCGUAUGGCAACGCUGAGCCAAGCUUCGGCGCCUGCGCCGAUGAAGGUGUAGCGACUAGACGGCACCCACCUAAGGCGAACGGUAUGGUGAAGGCAUAGUCGAGGGAGAGGCGAAAGUCACACAAACCGG [C82U A120C A145G C150G C169G U176A], for which the reverse-splicing fitness stood at 0.00987. Turning to GUGCCUUGCGCCGGGAAACCACGCAAGGGAUGGUGUCAAAUUCGGCGAAACCUAAGCGCCCGCCCGGGCGUAUGGCAACGCUGAGCCAAGCUUCGGCGCCUGCGCCGAUGAAGGUGUAGCGACUAGACGGCACCCACCUAAGGCGAACGGUAUGGUGAAGGCAUAGUCAAGGGAGAGGCGAAAGUCACACAAACCGG [C82U A120C A145G C150G C169A U176A], the reverse-splicing fitness was determined as 0.0124. On to GUGCCUUGCGCCGGGAAACCACGCAAGGGAUGGUGUCAAAUUCGGCGAAACCUAAGCGCCCGCCCGGGCGUAUGGCAACGCUGAGCCAAGCUUCGGCGCCUGCGCCGAUGAAGGUGUAGCGACUAGACGGCACCCACCUAAGGCGAACGGUAUGGUGAAGGCAUAGUCAAGGGAGGGGCGAAAGUCACACAAACCGG [C82U A120C A145G C150G C169A U176G], for which the reverse-splicing fitness came out at 0.00772. The figure for GUGCCUUGCGCCGGGAAACCACGCAAGGGAUGGUGUCAAAUUCGGCGAAACCUAAGCGCCCGCCCGGGCGUAUGGCAACGCUGAGCCAAGCUUCGGCGCCUGCGCCGAUGAAGGUGUAGCGACUAGACGGCACCCACCUAAGGCGAACGGUAUGGUGAAGGCAUAGUCAAGGGAGCGGCGAAAGUCACACAAACCGG [C82U A120C A145G C150G C169A U176C] is 0.0131; for GUGCCUUGCGCCGGGAAACCACGCAAGGGAUGGUGUCAAAUUCGGCGAAACCUAAGCGCCCGCCCGGGCGUAUGGCAACGCUGAGCCAAGCUUCGGCGCCUGCGCCGAUGAAGGUGUAGCGACUAGACGGCACCCACCUAAGGCCAACGCUAUGGUGAAGGCAUAGUCCAGGGAGAGGCGAAAGUCACACAAACCGG [C82U A120C A145C U176A] it is 0.0438; for GUGCCUUGCGCCGGGAAACCACGCAAGGGAUGGUGUCAAAUUCGGCGAAACCUAAGCGCCCGCCCGGGCGUAUGGCAACGCUGAGCCAAGCUUCGGCGCCUGCGCCGAUGAAGGUGUAGCGACUAGACGGCACCCACCUAAGGCCAACGCUAUGGUGAAGGCAUAGUCCAGGGAGCGGCGAAAGUCACACAAACCGG [C82U A120C A145C U176C] it is 0.0651. As to GUGCCUUGCGCCGGGAAACCACGCAAGGGAUGGUGUCAAAUUCGGCGAAACCUAAGCGCCCGCCCGGGCGUAUGGCAACGCUGAGCCAAGCUUCGGCGCCUGCGCCGAUGAAGGUGUAGCGACUAGACGGCACCCACCUAAGGCCAACGCUAUGGUGAAGGCAUAGUCCAGGGAGGGGCGAAAGUCACACAAACCGG [C82U A120C A145C U176G], the reverse-splicing fitness came to 0.00964. The figure for GUGCCUUGCGCCGGGAAACCACGCAAGGGAUGGUGUCAAAUUCGGCGAAACCUAAGCGCCCGCCCGGGCGUAUGGCAACGCUGAGCCAAGCUUCGGCGCCUGCGCCGAUGAAGGUGUAGCGACUAGACGGCACCCACCUAAGGCGAACGGUAUGGUGAAGGCAUAGUCCAGGGAGUGGCGAAAGUCACACAAACCGG [C82U A120C A145G C150G] is 0.0255; for GUGCCUUGCGCCGGGAAACCACGCAAGGGAUGGUGUCAAAUUCGGCGAAACCUAAGCGCCCGCCCGGGCGUAUGGCAACGCUGAGCCAAGCUUCGGCGCCUGCGCCGAUGAAGGUGUAGCGACUAGACGGCACCCACCUAAGGCGAACGAUAUGGUGAAGGCAUAGUCCAGGGAGUGGCGAAAGUCACACAAACCGG [C82U A120C A145G C150A] it is 0.0315; for GUGCCUUGCGCCGGGAAACCACGCAAGGGAUGGUGUCAAAUUCGGCGAAACCUAAGCGCCCGCCCGGGCGUAUGGCAACGCUGAGCCAAGCUUCGGCGCCUGCGCCGAUGAAGGUGUAGCGACUAGACGGCACCCACCUAAGGCGAACGGUAUGGUGAAGGCAUAGUCUAGGGAGUGGCGAAAGUCACACAAACCGG [C82U A120C A145G C150G C169U] it is 0.0108. On to GUGCCUUGCGCCGGGAAACCACGCAAGGGAUGGUGUCAAAUUCGGCGAAACCUAAGCGCCCGCCCGGGCGUAUGGCAACGCUGAGCCAAGCUUCGGCGCCUGCGCCGAUGAAGGUGUAGCGACUAGACGGCACCCACCUAAGGCGAACGGUAUGGUGAAGGCAUAGUCAAGGGAGUGGCGAAAGUCACACAAACCGG [C82U A120C A145G C150G C169A], for which the reverse-splicing fitness was 0.00952. The figure for GUGCCUUGCGCCGGGAAACCACGCAAGGGAUGGUGUCAAAUUCGGCGAAACCUAAGCGCCCGCCCGGGCGUAUGGCAACGCUGAGCCAAGCUUCGGCGCCUGCGCCGAUGAAGGUGUAGCGACUAGACGGCACCCACCUAAGGCGAACGGUAUGGUGAAGGCAUAGUCGAGGGAGUGGCGAAAGUCACACAAACCGG [C82U A120C A145G C150G C169G] is 0.00749; for GUGCCUUGCGCCGGGAAACCACGCAAGGGAUGGUGUCAAAUUCGGCGAAACCUAAGCGCCCGCCCGGGCGUAUGGCAACGCUGAGCCAAGCUUCGGCGCCUGCGCCGAUGAAGGUGUAGCGACUAGACGGCACCCACCUAAGGCGAACGAUAUGGUGAAGGCAUAGUCUAGGGAGUGGCGAAAGUCACACAAACCGG [C82U A120C A145G C150A C169U] it is 0.0116; for GUGCCUUGCGCCGGGAAACCACGCAAGGGAUGGUGUCAAAUUCGGCGAAACCUAAGCGCCCGCCCGGGCGUAUGGCAACGCUGAGCCAAGCUUCGGCGCCUGCGCCGAUGAAGGUGUAGCGACUAGACGGCACCCACCUAAGGCGAACGAUAUGGUGAAGGCAUAGUCAAGGGAGUGGCGAAAGUCACACAAACCGG [C82U A120C A145G C150A C169A] it is 0.00919.

Turning to GUGCCUUGCGCCGGGAAACCACGCAAGGGAUGGUGUCAAAUUCGGCGAAACCUAAGCGCCCGCCCGGGCGUAUGGCAACGCUGAGCCAAGCUUCGGCGCCUGCGCCGAUGAAGGUGUAGCGACUAGACGGCACCCACCUAAGGCGAACGAUAUGGUGAAGGCAUAGUCGAGGGAGUGGCGAAAGUCACACAAACCGG [C82U A120C A145G C150A C169G], the reverse-splicing fitness came to 0.00829.

The values above are taken from the RNAGym collection of RNA variant scans (doi:10.1093/molbev/msab373).
